Broadly, the stoichiometry N is a count of units in the complex or per binding partner.

This assay deals with (R)-selective amine : pyruvate transaminase from Nectria haematococca, His-tagged (construct pQR1023) (Nectria haematococca). Nature of the assay: SEC; Superdex 200 HiLoad 16/60 gel filtration, 50 mM Tris/HCl, 0.1 M NaCl pH 7.5, 1.0 mL/min; dimer from the elution volume.

In turn, “(R)-selective amine : pyruvate transaminase from Nectria haematococca, His-tagged (construct pQR1023) (enzyme)” showed a stoichiometry N of 2.

For the origin of these results see PMC4255305.
